Measurements published in patent US8058507B2, “HOPM1 mediated disease resistance to Pseudomonas syringae in Arabidopsis” (priority 2007, dated 2011).

Legend:
Pst DC3000 ΔCEL mutant = test: Bacterial multiplication and disease symptoms in HopM1 transgenic Arabidopsis plants; format: in vivo, Pseudomonas syringae; conditions: protein expressed in transgenic Arabidopsis (Col-0 gl1), DEX-induced
Method: (§1) Following inoculation, infected plants were monitored daily over a 3- to 4-day period for symptom development and bacterial multiplication. For experiments described in FIGS. 1 and 5, plants were sprayed with 30 μM dexamethasone (DEX) 24 h before bacterial inoculation (1×10^6 cfu/ml).
(§2) Leaves were harvested and surface sterilized as follows: 1) whole leaves were removed from a host plant and gently mixed in a 70% ethanol solution for 1 minute. Leaves were blotted briefly on paper towels then rinsed in sterile distilled water for 1 minute, then blotted dry on paper towels. Leaf disks were excised from leaves with a 0.5 cm^2 or smaller cork borer, depending on the size of the sample leaves; 2) leaf disks from the leaves of 2 or more independent replicate plants were pooled for a single tissue sample and placed in a 1.5-mL microfuge tube with 100 μL sterile distilled water, the amount of leaf tissue per tube was recorded as leaf surface area. Three or more samples were harvested for each time point. […] The number of serial dilutions necessary to get countable colonies were determined for each sample, however dilutions to 10^−7 were usually sufficient for any bacterial strain; 7) The samples were plated on the appropriate medium (e.g., Low salt Luria Bertani) supplemented with the necessary antibiotics to select for the specific inoculated bacterial strain. […]

Pst DC3000 = test: as above; format: in vivo, Pseudomonas syringae; conditions: full-length HopM1 expressed in transgenic Arabidopsis
Method: as §1, §2

[1] = tested on: Arabidopsis Y2H cDNA library; test: Yeast two-hybrid (Y2H) screening with HopM1 baits; format: binding; conditions: protein used as bait
Description: A LexA-based yeast two-hybrid system was used for screening an Arabidopsis Y2H cDNA library using full-length HopM1 and the dominant-negative domain of HopM1 (HopM11-300) as bait, in separate screenings. This system was based upon a pGilda Lex A expression vector (CLONTECHniques, OCTOBER 1999 p. 26-27, Clontech Laboratories Inc.; herein incorporated by reference in its entirety) for expressing HopM1 proteins in combination with a lacZ reporter gene on a separate plasmid that autonomously replicated in yeast (CLONTECHniques, OCTOBER 1999 p. 26-27, Clontech Laboratories Inc.; herein incorporated by reference in its entirety), see below for addition information (see, MATCHMAKER LexA Two-Hybrid System Catalog #K1609-1 and MATCHMAKER LexA Libraries User Manual (PT3040-1) Version It PR67300 and (Yeast Protocols Handbook, Protocol # PT3024-1 Version # PR13103, published 14 Mar. 2001; herein incorporated by reference in its entirety).
hopM1 DNA fragments were amplified by PCR using the primers listed below and standard PCR procedures then fragments were isolated and cloned into a bait vector pGilda Lex A (resistance to ampicillin (100 μg/ml) to E. coli hosts; Protocol # PT3147-5; Version # PR81829; Clontech Laboratories, Inc.; herein incorporated by reference in its entirety). […]

AtMIN proteins = test: Immunoblot of AtMIN proteins co-expressed with HopM1 in yeast; format: cell-based, Arabidopsis thaliana; conditions: co-expression in yeast
Description: AtMIN fusion proteins expressed from pB42AD were visualized by the HA epitope antibody, as was AtMIN10-HA. HopM1 fusion proteins expressed from pGilda were visualized by the LexA antibody. Coomassie Brilliant Blue-stained gels were used as loading controls. […] AtMIN12 (a putative protein predicted to be targeted to the chloroplast) was not destabilized.
HopM11-300 or full-length HopM1 pGILDA and each individual test AtMIN pB42AD were co-transformed into yeast cells as described in EXAMPLE III.
Immunoblot analysis was then performed on yeast cells lines that expressed one each of the 21 AtMIN proteins co-expressed with either HopM11-300 or full-length HopM1(1-712). […] For comparison, AtMIN12 (a hypothetical protein predicted to be targeted to the chloroplast) was not destabilized (FIG. 6A).

B1: full-length HopM1: Pst DC3000 type III effector, 712-aa virulence protein (SEQ ID NO:34) (protein)
chain: MISSRIGGAGGVELSRVNQQHDTVPAQTAHPNAVTAGMNPPLTPDQSGSHATESSSAGAARLNVAARHTQLLQAFKAEHGTAPVSGAPMISSRAALLIGSLLQAEPLPFEVMAEKLSPERYQLKQFQGSDLQQRLEKFAQPGQIPDKAEVGQLIKGFAQSVADQLEHFQLMHDASPATVGQHAKADKATLAVSQTALGEYAGRASKAIGEGLSNSIASLDEHISALDLTLQDAEQGNKESLHADRQALVDAKTTLVGLHADFVKSPEAKRLASVAAHTQLDNVVSDLVTARNTVGGWKGAGPIVAAAVPQFLSSMTHLGYVRLSTSDKLRDTIPETSSDANMLKASIIGMVAGIAHETVNSVVKPMFQAALQKTGLNERLNMVPMKAVDTNTVIPDPFELKSEHGELVKKTPEEVAQDKAFVKSERALLNQKKVQGSSTHPVGELMAYSAFGGSQAVRQMLNDVHQINGQTLSARALASGFGGAVSASSQTLLQLKSNYVDPQGRKIPVFTPDRAESDLKKDLLKGMDLREPSVRTTFYSKALSGIQSSALTSALPPVTAQAEGASGTLSAGAILRNMALAATGSVSYLSTLYTNQSVTAEAKALKAAGMGGATPMLDRTETALNNIRHPNRESLPHTFQKSTLSGIPRVAENAYHMGRGALQLPTQMAVDTVRVVDEGVLNAVASAREALKQPTKDDDALRALEEGLLDPR
modifications: 6xHis tag; Pseudomonas syringae pv. tomato str. DC3000
complementation of the virulence defect (multiplication, disease symptoms) (Pst DC3000 ΔCEL mutant): almost fully complemented | complementation effect on multiplication (Pst DC3000): did not show this effect | interactors recovered in Y2H screen [1]: failed to recover target interactor host proteins | destabilization of AtMIN proteins in yeast (AtMIN proteins): destabilized
